We go through 4 molecules from patent publication US20170296524A1 (KLINIKUM RECHTS DER ISAR DER TECHNISCHEN UNIVERSITAT MUNCHEN, published 2017).

First the molecules themselves.
B1: MCT1 (monocarboxylate transporter 1), endogenous (other, human, UniProt P53985 1-500, looked up)
chain: MPPAVGGPVGYTPPDGGWGWAVVIGAFISIGFSYAFPKSITVFFKEIEGIFHATTSEVSWISSIMLAVMYGGGPISSILVNKYGSRIVMIVGGCLSGCGLIAASFCNTVQQLYVCIGVIGGLGLAFNLNPALTMIGKYFYKRRPLANGLAMAGSPVFLCTLAPLNQVFFGIFGWRGSFLILGGLLLNCCVAGALMRPIGPKPTKAGKDKSKASLEKAGKSGVKKDLHDANTDLIGRHPKQEKRSVFQTINQFLDLTLFTHRGFLLYLSGNVIMFFGLFAPLVFLSSYGKSQHYSSEKSAFLLSILAFVDMVARPSMGLVANTKPIRPRIQYFFAASVVANGVCHMLAPLSTTYVGFCVYAGFFGFAFGWLSSVLFETLMDLVGPQRFSSAVGLVTIVECCPVLLGPPLLGRLNDMYGDYKYTYWACGVVLIISGIYLFIGMGINYRLLAKEQKANEQKKESKEEETSIDVAGKPNEVTKAAESPDQKDTDGGPKEEESPV
notes: Endogenous protein in HEK 293T or MM1S cell lysates

The target of one assay is T1, HA-CUL4A (UniProt Q13619 1-759, limits assumed).
T1 construct: Purified from HEK293T cells and incubated with MM1S cell extracts; not shown: HA tag
Kind of assay: HA-CUL4A purified from HEK293T cells, incubated with MM1S extracts, immunoblot. The text has this:
Bound protein fractions were subjected to immunoblot analysis using the indicated antibodies.
For orientation: A western blot detects proteins with antibodies after separation by electrophoresis.

Assay [1] concerns the target T2, Cereblon (CRBN), human, wild type, without tag (endogenous or expressed from plasmid) (human, UniProt Q96SW2 1-442).
T2 construct: Endogenous protein in HEK 293T or MM1.S/MM1S lysates, or untagged wild-type CRBN re-expressed in CRBN-/- HEK 293T cells; also called CRBN WT; endogenous CRBN
Kind of assay: co-immunoprecipitation.
Description: Immunocomplexes were probed with antibodies to the indicated proteins.
(§1) Cell samples were lysed in lysis buffer (NaCl 150mM, Tris-HCl 50 mM, MgCl2 5 mM, EDTA 1 mM, NP-40 0,1%, Glycerol 5% and inhibitors) for whole cell lysates, immunoprecipitations or pulldown experiments. […] Briefly, the cellular lysates were centrifuged 15 min at 14,000 rpm at 4° C. to separate from cellular debris. Protein concentration in the supernatants was measured before Laemmli buffer was added. The lysates were separated by SDS-PAGE and blotted onto PVDF (polyvinylidene difluoride) membranes. After blotting, PVDF membranes were stained with Ponceau solution to evaluate protein loading. After washing and blocking unspecific bindings in 5% milk, the membranes were incubated with primary antibodies. After addition of horseradish peroxidase coupled secondary antibodies, western blot membranes were developed using the ECL (enhanced chemoluminescence) method (SuperSignal West reagents from Thermo Scientific). […] For the experiments using a protein cross linker, DSS (Pierce) was added to the cells to a final concentration of 1 mM for 45 minutes at RT. […] After washing the beads four times in lysis buffer, Laemmli buffer was added and proteins were analyzed by SDS- electrophoresis.

In assay [2] the target is T3, Strep-Flag tagged CRBN (CRBN-SF) (human, UniProt Q96SW2 1-442).
T3 construct: Tag put at the C-terminus from the vector's name (pcDNA-C-SF-TAP); also called CRBN-SF-TAP; CRBN-tandem-Strep-FLAG-tagged; not shown: tandem Strep-FLAG tag of vector pcDNA-C-SF-TAP
In words: tandem affinity purification (Strep, then Flag) from HEK 293T cells, mass spectrometry.

Assay [3] concerns the target T4, FLAG-MCT1 (human, UniProt P53985 1-500).
T4 construct: Expressed in HEK293T cells; The tag is written first only because the name prints it so; also called Flag-tagged MCT1; not shown: FLAG tag
T4 sequence (looked up): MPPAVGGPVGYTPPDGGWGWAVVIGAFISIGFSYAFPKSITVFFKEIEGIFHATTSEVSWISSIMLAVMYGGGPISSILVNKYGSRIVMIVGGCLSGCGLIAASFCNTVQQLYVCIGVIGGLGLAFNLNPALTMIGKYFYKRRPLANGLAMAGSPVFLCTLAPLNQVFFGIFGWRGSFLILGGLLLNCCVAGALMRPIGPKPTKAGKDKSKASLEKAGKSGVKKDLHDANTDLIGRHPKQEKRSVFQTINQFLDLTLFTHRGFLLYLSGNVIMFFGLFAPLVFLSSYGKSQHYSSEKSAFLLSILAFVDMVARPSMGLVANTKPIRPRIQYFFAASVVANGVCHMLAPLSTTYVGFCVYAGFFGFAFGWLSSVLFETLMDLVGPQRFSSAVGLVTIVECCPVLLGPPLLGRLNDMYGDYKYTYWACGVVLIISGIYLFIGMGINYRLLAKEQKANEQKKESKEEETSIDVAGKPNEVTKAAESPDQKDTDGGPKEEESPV
In words: FLAG-MCT1 immunoprecipitation from cycloheximide-treated HEK293T cells, immunoblot (FIG. 13G).

Assay [4] has as its target T4, FLAG-MCT1. Kind of assay: Flag-bead immunoprecipitation of Flag-MCT1 from HEK 293T cells with or without co-expressed CRBN, Western blot for CD147.
Description: After lysis, MCT1 was immunoprecipitated with Flag-beads. Binding to CD147 was analysed by Western Blot.
as §1
Assay [5] addresses T2, Cereblon (CRBN), human, wild type, …. Kind of assay: heading of FIG. 16: FLAG immunoprecipitation from HEK293T cells (16A) and GST-CRBN pull-down (16B).
Assay [6] concerns the target B1. In words: FLAG-CD147 immunoprecipitation from cycloheximide-treated HEK293T cells, immunoblot (FIG. 13F). As to the method:
Cells were treated with cycloheximide (CHX) for the indicated times before lysis.

T1 sequence (Q13619 whole entry): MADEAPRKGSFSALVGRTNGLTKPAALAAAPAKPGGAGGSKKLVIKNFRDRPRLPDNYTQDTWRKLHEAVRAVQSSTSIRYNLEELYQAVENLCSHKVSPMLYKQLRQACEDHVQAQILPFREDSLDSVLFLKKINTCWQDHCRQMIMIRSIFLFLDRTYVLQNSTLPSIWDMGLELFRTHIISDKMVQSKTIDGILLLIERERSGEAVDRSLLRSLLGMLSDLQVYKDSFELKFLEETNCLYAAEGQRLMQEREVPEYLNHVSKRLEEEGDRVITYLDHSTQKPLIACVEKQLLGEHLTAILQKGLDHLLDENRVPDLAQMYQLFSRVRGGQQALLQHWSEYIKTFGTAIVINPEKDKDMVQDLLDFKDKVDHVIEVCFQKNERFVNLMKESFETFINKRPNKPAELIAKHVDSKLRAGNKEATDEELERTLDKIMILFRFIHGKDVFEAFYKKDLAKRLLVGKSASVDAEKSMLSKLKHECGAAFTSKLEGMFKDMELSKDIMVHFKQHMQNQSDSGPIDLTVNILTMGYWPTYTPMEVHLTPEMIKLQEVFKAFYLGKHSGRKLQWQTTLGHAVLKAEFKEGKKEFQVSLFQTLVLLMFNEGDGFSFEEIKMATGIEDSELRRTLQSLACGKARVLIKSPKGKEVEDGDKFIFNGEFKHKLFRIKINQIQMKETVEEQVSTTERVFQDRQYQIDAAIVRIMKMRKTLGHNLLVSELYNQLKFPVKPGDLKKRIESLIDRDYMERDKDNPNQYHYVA
T2 sequence (Q96SW2 whole entry): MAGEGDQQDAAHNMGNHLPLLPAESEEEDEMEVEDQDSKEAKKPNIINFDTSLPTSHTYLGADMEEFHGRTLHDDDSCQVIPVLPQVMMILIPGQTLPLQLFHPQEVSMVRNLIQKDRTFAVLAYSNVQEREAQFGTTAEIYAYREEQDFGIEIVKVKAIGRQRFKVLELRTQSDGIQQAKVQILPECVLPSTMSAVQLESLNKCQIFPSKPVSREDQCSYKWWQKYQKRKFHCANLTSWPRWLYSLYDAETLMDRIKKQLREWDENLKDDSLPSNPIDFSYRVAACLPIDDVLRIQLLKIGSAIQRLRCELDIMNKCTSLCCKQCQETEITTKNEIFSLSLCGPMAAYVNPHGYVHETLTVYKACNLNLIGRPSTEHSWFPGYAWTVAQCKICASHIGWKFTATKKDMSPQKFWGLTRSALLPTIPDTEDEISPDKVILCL
T3 sequence (Q96SW2 whole entry): as above

With B1, the binding result with HA-CUL4A is “no binding”.

B2: CD147 (Basigin, EMMPRIN), endogenous (other, human, UniProt P35613-2 22-269, looked up)
chain: AAGTVFTTVEDLGSKILLTCSLNDSATEVTGHRWLKGGVVLKEDALPGQKTEFKVDSDDQWGEYSCVFLPEPMGTANIQLHGPPRVKAVKSSEHINEGETAMLVCKSESVPPVTDWAWYKITDSEDKALMNGSESRFFVSSSQGRSELHIENLNMEADPGQYRCNGTSSKGSDQAIITLRVRSHLAALWPFLGIVAEVLVLVTIIFIYEKRRKPEDVLDDDDAGSAPLKSSGQHQNDKGKNVRQRNSS
modifications: core-glycosylated (CG) and high-glycosylated (HG) forms
notes: as for B1
Consider B2, for which the binding result in assay [1] was “binds”; with HA-CUL4A, “no binding”; in assay [2], “binds”; in the assay with FLAG-MCT1 [3], “binds”.

B3: HA-CD147 (other, human, UniProt P35613-2 22-269, looked up)
chain: AAGTVFTTVEDLGSKILLTCSLNDSATEVTGHRWLKGGVVLKEDALPGQKTEFKVDSDDQWGEYSCVFLPEPMGTANIQLHGPPRVKAVKSSEHINEGETAMLVCKSESVPPVTDWAWYKITDSEDKALMNGSESRFFVSSSQGRSELHIENLNMEADPGQYRCNGTSSKGSDQAIITLRVRSHLAALWPFLGIVAEVLVLVTIIFIYEKRRKPEDVLDDDDAGSAPLKSSGQHQNDKGKNVRQRNSS
notes: Expressed in HEK 293T cells; not shown: HA tag
With B3, the binding result with FLAG-MCT1 [4] is on record as “binds”.

B4: FLAG-CD147 (other, human, UniProt P35613-2 22-269, looked up)
chain: AAGTVFTTVEDLGSKILLTCSLNDSATEVTGHRWLKGGVVLKEDALPGQKTEFKVDSDDQWGEYSCVFLPEPMGTANIQLHGPPRVKAVKSSEHINEGETAMLVCKSESVPPVTDWAWYKITDSEDKALMNGSESRFFVSSSQGRSELHIENLNMEADPGQYRCNGTSSKGSDQAIITLRVRSHLAALWPFLGIVAEVLVLVTIIFIYEKRRKPEDVLDDDDAGSAPLKSSGQHQNDKGKNVRQRNSS
notes: Expressed in HEK293T cells; The tag is written first only because the name prints it so; also called FLAG-tagged CD147; not shown: FLAG tag
Take B4: the binding result in assay [5] and in assay [6] was “binds” each time.
